Test results published in PMC8016914.

Biological target: T1, PsbS modified to contain a strep-tag at the C terminus (Arabidopsis thaliana), Q9XF91
T1 chain: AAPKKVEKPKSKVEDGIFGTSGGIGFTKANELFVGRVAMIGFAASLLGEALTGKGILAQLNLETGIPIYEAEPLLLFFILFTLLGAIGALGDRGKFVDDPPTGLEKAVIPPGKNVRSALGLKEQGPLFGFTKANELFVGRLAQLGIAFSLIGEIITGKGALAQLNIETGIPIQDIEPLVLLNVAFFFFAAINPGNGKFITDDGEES
Experiment: SDS-PAGE and immunoblot; PsbS in detergent and in LHCII + PsbS proteoliposomes (thylakoid lipids); monomeric (M) and dimeric (D) bands detected with an anti-PsbS antibody
Conditions: remark: other sources report otherwise

stoichiometry N: 2
B1: PsbS modified to contain a strep-tag at the C terminus, Q9XF91 60-265 (natural protein)
chain: AAPKKVEKPKSKVEDGIFGTSGGIGFTKANELFVGRVAMIGFAASLLGEALTGKGILAQLNLETGIPIYEAEPLLLFFILFTLLGAIGALGDRGKFVDDPPTGLEKAVIPPGKNVRSALGLKEQGPLFGFTKANELFVGRLAQLGIAFSLIGEIITGKGALAQLNIETGIPIQDIEPLVLLNVAFFFFAAINPGNGKFITDDGEES
